Drawing on US9138467, this text covers % recovery in Con A elution and Total protein (mg) eluted from Con A column for 1 substance.

Test [1] deals with M. gallisepticum affinity purified antigen. Nature of the test: lectin affinity chromatography, protein in eluate as percent of load.
For test [2] the target is unchanged. Nature of the test: lectin affinity chromatography, protein in eluate (about 1.5 mg loaded).

The substance “Concanavalin A (immobilized Con A column) (from UniProt P02866 30-281)” had a % recovery in Con A elution in test [1] of 5.7%. This substance displayed a Total protein (mg) eluted from Con A column in test [2] of 0.088 mg.
